How the values were obtained:
Assay in all cases: cryo-EM structure; polar flagellar motor-hook complex purified as a whole from V. alginolyticus KK148 ΔflgL; local refinements of the LPHT ring, hook, rod, export apparatus and MS ring; LPHT ring particles also obtained by disassembling the complex at reduced salt
[1] = target: FlgH (Vibrio alginolyticus (endogenous in strain KK148 ΔflgL))
[2] = target: FlgI (Vibrio alginolyticus (endogenous in strain KK148 ΔflgL))
[3] = target: FlgT (Vibrio alginolyticus (endogenous in strain KK148 ΔflgL))
[4] = target: the molecule itself

FlgH (natural protein)
stoichiometry N [1]: 26

FlgI (natural protein)
stoichiometry N [2]: 26

FlgT (natural protein)
stoichiometry N [3]: 26

B1: FliF (natural protein, UniProt Q75N27 1-580, looked up)
chain: MADKSTDLTVTEGGSDGALVASSDVDVESQNPDLEERSASKFDMAVGDLDLLRQVVLVLSISICVALIVMLFFWVKEPEMRPLGAYETEELIPVLDYLDQQKINYKLDGNTISVESSEYNSIKLGMVRSGVNQATEAGDDILLQDMGFGVSQRLEQERLKLSRERQLAQAIEEMKQVRKARVLLALPKHSVFVRHNQEASASVFLTLSTGTNLKQQEVDSIVDMVASAVPGMKTSRITVTDQHGRLLSSGSQDPASAARRKEQELERSQEQALREKIDSVLLPILGYGNYTAQVDIQMDFSAVEQTRKRFDPNTPATRSEYALEDYNNGNMVAGIPGALSNQPPADASIPQDVAQMKDGSVMGQGSVRKESTRNFELDTTISHERKQTGTVARQTVSVAIKDRRQVNPDTGEVTYTPMSESEINAIRQVLIGTVGFDQGRGDLLNVLSVKFAEPEAEQLEEPPIWEHPNFSDWVRWFASALVIIVVVLVLVRPAMKKLLNPTSDDEDEMYGPDGLPIGADGETSLIGSDIESSELFEFGSSIDLPNLHKDEDVLKAVRALVANEPELAAQVVKNWMNDNG
notes: FliF, MS ring subunit of the polar flagellar motor, Vibrio alginolyticus; domains RBM2, RBM3, β-collar; extended peptide loops LA, LB, LC; 34 subunits form the MS ring; 23 RBM2 domains seen in the RBM2 subring; also called MS ring protein; FliF peptide loops LA, LB, LC; source: endogenous, purified within the polar flagellar motor-hook complex from V. alginolyticus KK148 ΔflgL
stoichiometry N [4]: 34
